Source: patent US7282356B2, “D-aminoacylase mutants” (Daicel Chemical Industries, Ltd., priority 2002, dated 2007)

Assays:
[1] = Second generation mutants: activity of producing D-tryptophan (TNBS Abs. 420 / OD600); assay type: cell-based, E. coli JM109; settings: 5% N-acetyl-DL-tryptophan and 2% N-acetyl-L-tryptophan
Description: Three types of the E. coli transformant libraries obtained in Example 11 were inoculated on an LB agar plate. Each colony grown on the plate was inoculated with a toothpick to a well of a microtiter plate which contained 150 μl of LB culture medium containing 50 μg/ml ampicillin and 0.02 mM IPTG, and then the microtiter plate was covered with Breathable Sealing Membrane (Nalgene). The microtiter plate was incubated at 37° C. for 18 hours while being shaken. 10 μl of the culture medium solution was added to the reaction solution containing 300 mM Tris-hydrochloride buffer (pH 8.0), 0.1% cetylpyridinium bromide, 5% N-acetyl-DL-tryptophan, 1% N-acetyl-L-tryptophan, and distilled water in the wells of a microtiter plate. The plate was incubated at 25° C. for 1 hour while being shaken. Then, D-tryptophan produced from N-acetyl-D-tryptophan was quantified by colorimetry according to the TNBS method. […]
(§1) The amino acid substitution in each mutant, and the effect of the amino acid substitution, which was estimated as an activity of producing D-tryptophan in the presence of 5% N-acetyl-DL-tryptophan and 2% N-acetyl-L-tryptophan, are shown in Table 2. The “activity”, as used herein, refers to “a colorimetric value of the reaction solution determined at the end of reaction by the TNBS method (Abs. 420)/the degree of bacterial growth (OD600)”.

[2] = Third generation mutants: activity of producing D-tryptophan (TNBS method); assay type: cell-based, E. coli JM109; settings: 2% N-acetyl-DL-tryptophan, 3.5% N-acetyl-L-tryptophan, 25° C., 30 minutes
Excerpt: as §1
Cells of the E. coli transformant obtained in Example 9 were inoculated on an LB agar plate. Each colony grown on the plate was inoculated with a toothpick to a well of a microtiter plate which contained 150 μl of LB culture medium containing 50 μg/ml ampicillin and 0.02 mM IPTG, and then the microtiter plate was covered with Breathable Sealing Membrane (Nalgene). The microtiter plate was incubated at 37° C. for 18 hours while being shaken. 10 μl of the culture medium solution was added to the reaction solution containing 300 mM Tris-hydrochloride buffer (pH 8.0), 0.1% cetylpyridinium bromide, 2% N-acetyl-DL-tryptophan, 3.5% N-acetyl-L-tryptophan, and distilled water in the wells of a microtiter plate. The plate was incubated at 25° C. for 30 minutes while being shaken. Then, D-tryptophan produced from N-acetyl-D-tryptophan was quantified by colorimetry according to the TNBS method using D-tryptophan as standard. […]

[3] = Production of D-tryptophan from N-acetyl-DL-tryptophan using cell-free extract (10 U/mL); assay type: biochemical; settings: for Yield of D-Trp: 10 U/mL reaction solution, 30° C., 24 hours
Description: Wild-type or mutant D-aminoacylase extract can be obtained by, for example, recovering microbial cells by filtration and centrifugation, suspending them in a buffer, and disrupting them using a Bead-Beater (BIOSPEC PRODUCT). Reaction solutions containing 10 U/mL enzyme thus obtained 300 mM Tris-hydrochloride buffer (pH 8.0), and 12%, 15%, 17%, 20% or 22% N-acetyl-DL-tryptophan, are incubated at 30° C. for 24 hours while being shaken. Thus, D-tryptophan can be produced in 80% or higher yield from 12%, 15%, or 17% substrate, or in 50% or higher yield from 20% or 22% substrate.
0.5 ml of a reaction solution containing 5 units of cell-free extract obtained in the step of enzyme purification described in Example 19 or Example 23, 12%, 15%, 17%, 20%, or 22% N-acetyl-DL-tryptophan, and 300 mM Tris-hydrochloride buffer (pH 8.0) was incubated at 30° C. for 24 hours while being stirred. While with the wild type the yield of D-tryptophan was lower than 10% at any substrate concentration, with the mutant 3AD-0089 the yield of D-tryptophan was 80% or higher at substrate concentrations of up to 17%. Furthermore, the mutant was confirmed to enable the production of D-tryptophan in 66% yield in the presence of 20% substrate, or in 58% yield in the presence of 22% substrate.

[4] = Hydrolysis of 15% N-acetyl-DL-tryptophan by E. coli cells; assay type: cell-based, E. coli HB101; settings: 25° C., 24 hours
Description: 3AD-0013(M347Q/R374H) and 3AD-0089(A154V/M347A/R374P) are mutants with two amino acid substitutions and with three amino acid substitutions of the third generation mutants obtained in Example 17, respectively. Cells of E. coli HB101 strain transformed with plasmids expressing the two types of mutants were each inoculated to a liquid LB medium, and cultured at 30° C. overnight. Then, the E. coli cells were inoculated to a culture medium (2x YT) and incubated at 30° C. for 18 hours. The cells of E. coli were harvested, and used to hydrolyze N-acetyl-D-tryptophan.
10 ml of a reaction solution containing E. coli cells prepared from 5 mL of culture medium solution, 300 mM Tris-hydrochloride buffer (pH 8.0), and 15% N-acetyl-DL-tryptophan was incubated at 25° C. for 24 hours while being stirred. E. coli HB101 strain containing the wild-type pSL-ADD6 was used as a control. While the yield was about 15% with the wild type, the yields were about 30% and about 80% with the mutant 3AD-0013 having two amino acid substitutions and the mutant 3AD-0089 having three amino acid substitutions, respectively. Thus, the third generation mutants obtained in […] were confirmed to have higher processability in the hydrolysis of higher concentrations of N-acetyl-DL-tryptophan.

B1: wild-type: D-aminoacylase derived from Alcaligenes denitrificans subsp. xylosoxydans MI-4, SEQ ID NO: 1 (protein)
chain: MSQSDSQPFDLLLAGGTLIDGSNTPGRRADLGVRGDRIAAIGDLSDAAAHTRVDVSGLVVAPGFIDSHTHDDNYLLRRRDMTPKISQGVTTVVTGNCGISLAPLAHANPPAPLDLLDEGGSYRFERFADYLDALRATPAAVNAACMVGHSTLRAAVMPDLQRAATDEEIAAMRDLAEEAMASGAIGISTGAFYPPAARATTEEIIEVCRPLSAHGGIYATHMRDEGEHIVAALEETFRIGRELDVPVVISHHKVMGQPNFGRSRETLPLIEAAMARQDVSLDAYPYVAGSTMLKQDRVLLAGRTIITWCKPFPELSGRDLDEVAAERGKSKYDVVPELQPAGAIYFMMDEPDVQRILAFGPTMIGSDGLPHDERPHPRLWGTFPRVLGHYARDLGLFPLETAVWKMTGLTAARFGLAGRGQLQAGYFADLVVFDPATVADTATFEHPTERAAGIHSVYVNGAPVWQEQAFTGQHAGRVLARTAA
modifications: Alcaligenes denitrificans subsp. xylosoxydans MI-4
Activity of producing D-tryptophan [1]: 2.58 | Activity of producing D-tryptophan [2]: 2.65 | Yield of D-Trp ([3]; 12% N-Ac-DL-Trp): 9.4% | Yield of D-Trp ([3]; 15% N-Ac-DL-Trp): 3.5% | Yield of D-Trp ([3]; 17% N-Ac-DL-Trp): 1.8% | Yield of D-Trp ([3]; 20% N-Ac-DL-Trp): 0.5% | Yield of D-Trp ([3]; 22% N-Ac-DL-Trp): 0.5% | yield of D-tryptophan ([3]; at any substrate concentration (12% to 22%)): lower than 10% | yield [4]: about 15%
